Where no end group is shown, it is not given here.
B1: Phage-3284 (peptide)
peptide: ELQRCIPQWMCVGL
notes: Peptide-180 library clone, tested as clonal phage supernatant with the peptide fused to pIII
B2: Phage-3283 (peptide)
peptide: FDHLCIPVWMCKGF
notes: as for B1
B3: Phage-3265 (peptide)
peptide: EIMLCKPEWMCYGF
B4: Phage-3278 (peptide)
peptide: LPPMCIPQWMCMHF
notes: Peptide-180 library clone, tested as clonal M13 phage displaying the peptide fused to pIII
B5: Phage-3285 (peptide)
peptide: FDTYCKPAWMCEGF
notes: as for B1
B6: Phage-3273 (peptide)
peptide: SMGLCKPPWMCAGF
modifications: not fully specified; cysteine pairing not given here
notes: as for B4
B7: Phage-3268 (peptide)
peptide: VEVKCVPEWMCTGF
notes: as for B4
B8: Phage-3288 (peptide)
peptide: VDAYCKPAWMCLGF
notes: as for B1
B9: Phage-3257 (peptide)
peptide: LGNLCVPPWMCQGF
B10: Phage-3263 (peptide)
peptide: FFKMCIPEWMCSGF
B11: Phage-3271 (peptide)
peptide: GGVLCQPAWMCIGF
notes: as for B4
B12: Phage-3274 (peptide)
peptide: MVVRCEPEWMCIGF
notes: as for B4
B13: Phage-3280 (peptide)
peptide: WNHVCIPTWMCTGM
notes: as for B4
B14: Phage-3267 (peptide)
peptide: LPYMCTPIWMCIGF
notes: as for B4
B15: Phage-3264 (peptide)
peptide: EENFCVPKWMCEGF
B16: Phage-3270 (peptide)
peptide: LDPMCVPSWMCWGF
notes: as for B4
B17: Phage-3260 (peptide)
peptide: ENVRCEPMWMCKGF
B18: Phage-3261 (peptide)
peptide: PTPVCKPGWMCDLF
B19: Phage-3253 (peptide)
peptide: SIPKCMPEWMCIGL
B20: Phage-3272 (peptide)
peptide: INAWCIPAWMCEGF
notes: as for B4
B21: Phage-3266 (peptide)
peptide: EYQVCKPTWMCTGF
B22: Phage-3251 (peptide)
peptide: GVIACKPHWMCTGF

Assays:
PSMA Fab [1] = target: T1, PSMA Fab (biotinylated (site not stated)); test: phage ELISA: clonal phage on biotinylated PSMA Fab captured on neutravidin, anti-M13-HRP detection, blocking buffer alone
T1 construct: also called Anti-PSMA Fab; 006 PSMA Fab

PSMA Fab [2] = target: T1, PSMA Fab; test: phage ELISA on captured PSMA Fab pre-incubated with PSMA antigen as competitor, anti-M13-HRP detection
Method: (§1) Clonal phage were harvested as crude supernatants and screened via standard ELISAs. […] Prior to the addition of clonal phage. wells were incubated with blocking buffer and PSMA antigen or blocking buffer alone. Without washing or aspirating, clonal phage supernatants were then added to the wells and incubated for a short time. Wells were then washed followed by detection of bound phage using a horse radish conjugated anti-M13 antibody.

PSMA Fab [3] = target: T2, PSMA Fab; test: clonal phage ELISA; biotinylated PSMA Fab on neutravidin plate; anti-M13 HRP detection
T2 construct: also called Anti-PSMA Fab; 006 PSMA Fab
Method: as §1

PSMA Fab [4] = target: T2, PSMA Fab; test: clonal phage ELISA; biotinylated PSMA Fab on neutravidin plate, wells pre-incubated with PSMA antigen as competitor; anti-M13 HRP detection;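 further: crude clonal phage supernatants added to antigen-treated wells without a wash, incubated briefly, then bound phage read out via horse radish–conjugated anti-M13 antibody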
Method: as §1

PSMA Fab (006 PSMA Fab) [5] = target: T3, PSMA Fab (006 PSMA Fab) (biotinylated for capture on neutravidin plates (site not stated)); test: phage ELISA as above, wells pre-incubated with PSMA antigen as competitor
T3 construct: also called Anti-PSMA Fab; anti-PSMA Fab

PSMA Fab (006 PSMA Fab) [6] = target: T3, PSMA Fab (006 PSMA Fab); test: phage ELISA: clonal phage supernatant on biotinylated PSMA Fab captured on neutravidin plate, anti-M13-HRP detection
Method: as §1

PSMA Fab (006 PSMA Fab) [7] = target: T4, PSMA Fab (006 PSMA Fab); test: phage ELISA; biotinylated PSMA Fab on neutravidin plate, clonal phage supernatant, anti-M13 HRP; blocking buffer alone
T4 construct: also called Anti-PSMA Fab; anti-PSMA Fab
Method: as §1

PSMA Fab (006 PSMA Fab) [8] = target: T4, PSMA Fab (006 PSMA Fab); test: phage ELISA; biotinylated PSMA Fab on neutravidin plate pre-incubated with PSMA antigen as competitor, clonal phage supernatant, anti-M13 HRP
Method: as §1

Binder	Phage binding ELISA signal, Anti-PSMA Fab (PSMA Fab [3])	Phage binding ELISA signal, Anti-PSMA Fab in presence of PSMA (PSMA Fab [4])	Phage binding ELISA signal, Anti-PSMA Fab in presence of PSMA (PSMA Fab (006 PSMA Fab) [5])	Phage binding ELISA signal, Anti-PSMA Fab (PSMA Fab (006 PSMA Fab) [6])	also measured
B1	–	–	–	–	Phage binding ELISA signal, Anti-PSMA Fab (PSMA Fab [1]): 1.89; Phage binding ELISA signal, Anti-PSMA Fab with PSMA antigen (PSMA Fab [2]): 0.0731
B2	–	–	–	–	Phage binding ELISA signal, Anti-PSMA Fab (PSMA Fab [1]): 1.89; Phage binding ELISA signal, Anti-PSMA Fab with PSMA antigen (PSMA Fab [2]): 0.0828
B3	1.91	0.0998	–	–	–
B4	–	–	0.0592	1.9	–
B5	–	–	–	–	Phage binding ELISA signal, Anti-PSMA Fab (PSMA Fab [1]): 1.89; Phage binding ELISA signal, Anti-PSMA Fab with PSMA antigen (PSMA Fab [2]): 0.0818
B6	–	–	0.0756	1.9	–
B7	–	–	0.0868	1.91	–
B8	–	–	–	–	Phage binding ELISA signal, Anti-PSMA Fab (PSMA Fab [1]): 1.89; Phage binding ELISA signal, Anti-PSMA Fab with PSMA antigen (PSMA Fab [2]): 0.0998
B9	1.92	0.241	–	–	–
B10	1.91	0.205	–	–	–
B11	–	–	0.0804	1.9	–
B12	–	–	0.0649	1.9	–
B13	–	–	0.0817	1.9	–
B14	–	–	0.143	1.91	–
B15	1.91	0.126	–	–	–
B16	–	–	0.0992	1.9	–
B17	1.92	0.0648	–	–	–
B18	1.92	0.0845	–	–	–
B19	1.93	0.0587	–	–	–
B20	–	–	0.137	1.9	–
B21	1.91	0.0904	–	–	–
B22	–	–	–	–	Phage binding ELISA signal, Anti-PSMA Fab (PSMA Fab (006 PSMA Fab) [7]): 1.93; Phage binding ELISA signal, Anti-PSMA Fab with PSMA antigen (PSMA Fab (006 PSMA Fab) [8]): 0.085
